Experimental findings from US8349318B2, “Use of specifically engineered enzymes to enhance the efficacy of prodrugs” (The Board of Trustees of the University of Illinois, priority 2008, dated 2013) are described below.

As usually defined, the kcat is the maximal rate divided by the concentration of active sites. In general, Km refers to the substrate concentration at which the rate is half of its maximum.

Series [1] has as its system T1, Cc1cn([C@@H]2C[C@@H](O)[C@H](CO)O2)c(=O)[nH]c1=O.
T1 construct: made in house
Nature of the series: Kinetic assay of nucleoside phosphorylation by R104Q-D133A dCK. The series is classed as biochemical, human. The settings on record: other: nucleoside 200 uM, 1 mM ATP.

In series [2] the test system is Nc1ccn([C@@H]2O[C@H](CO)[C@@H](O)C2(F)F)c(=O)n1. Put plainly: purified protein, by the assay type. To be noted: other: Table 9; pH 7.5; 37.0 °C.
The subject of series [3] is Nc1nc2c(ncn2[C@H]2C[C@H](O)[C@@H](CO)O2)c(=O)[nH]1. Put plainly: purified protein, by the assay type. To be noted: other: Table 9; pH 7.5; 37.0 °C.
The test system of series [4] is Cc1cn([C@@H]2C[C@@H](O)[C@H](CO)O2)c(=O)[nH]c1=O. Put plainly: purified protein, by the assay type. The settings on record: other: Table 9; pH 7.5; 37.0 °C.

Sequence of Wild Type dCK (Homo sapiens) (chain, as listed by the source): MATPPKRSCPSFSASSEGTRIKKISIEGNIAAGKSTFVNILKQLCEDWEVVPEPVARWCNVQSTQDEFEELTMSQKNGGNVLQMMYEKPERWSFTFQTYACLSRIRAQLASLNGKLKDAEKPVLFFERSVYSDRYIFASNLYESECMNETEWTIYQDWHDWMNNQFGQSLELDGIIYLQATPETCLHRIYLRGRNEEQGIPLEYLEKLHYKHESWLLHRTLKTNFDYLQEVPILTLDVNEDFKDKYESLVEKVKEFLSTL
Sequence of dCK R104L/D133A (Homo sapiens; D133A/R104L) (chain, as listed by the source R104L D133A D133A R104L): as the sequence (chain, as listed by the source) above, with R104L, D133A counted along it
Sequence of R104Q-D133A dCK (Homo sapiens; D133A/R104Q) (chain, as listed by the source R104Q D133A D133A R104Q): as the sequence (chain, as listed by the source) above, with R104Q, D133A counted along it

For “R104Q-D133A dCK (Homo sapiens; D133A/R104Q)”, in series [1], the kcat is 0.24 s⁻¹.

Wild Type dCK (Homo sapiens): in series [2], the Km was found to be 16.1 ± 3.5 µM and the kcat was 0.39 ± 0.03 s⁻¹. Moreover, in series [3], the Km stood at 231.0 ± 20.0 µM and the kcat came to 2.60 ± 0.10 s⁻¹.

On to “dCK R104L/D133A (Homo sapiens; D133A/R104L)”, for which the Michaelis-Menten constant (Km) is 17.8 ± 1.6 µM in series [4], 33.8 ± 5.3 µM in series [2] and 2266 ± 823 µM in series [3]. Further, the kcat stood at 1.33 ± 0.01 s⁻¹ in series [4], 2.01 ± 0.08 s⁻¹ in series [2] and 3.66 ± 0.01 s⁻¹ in series [3].
